The text below walks through data of article PMC7486400, “Allosteric coupling between α-rings of the 20S proteasome” (Nature Communications, 2020).

“And” between values parts separate entries of the source, which are not always exact repeats. Equal entries are not always repeated.

Sequences and labels used below:
B2: Thermoplasma acidophilium 20S proteasome α-subunit, wild type, full-length (natural protein, UniProt P25156 1-233, looked up)
chain: MQQGQMAYDRAITVFSPDGRLFQVEYAREAVKKGSTALGMKFANGVLLISDKKVRSRLIEQNSIEKIQLIDDYVAAVTSGLVADARVLVDFARISAQQEKVTYGSLVNIENLVKRVADQMQQYTQYGGVRPYGVSLIFAGIDQIGPRLFDCDPAGTINEYKATAIGSGKDAVVSFLEREYKENLPEKEAVTLGIKALKSSLEEGEELKAPEIASITVGNKYRIYDQEEVKKFL
notes: 20S proteasome α-subunit of Thermoplasma acidophilum, full-length; For the asymmetric CP the wild-type ring was co-expressed from α-His and α-MBP (both C-terminal, TEV site before the tag); All tags were removed after final purification, so the subunit is untagged in the EM samples; All these forms are kept as one molecule here; also called αWT; αwt
B3: Thermoplasma acidophilium 20S proteasome α-subunit R28L (natural protein, UniProt P25156 1-233, looked up)
chain: MQQGQMAYDRAITVFSPDGRLFQVEYALEAVKKGSTALGMKFANGVLLISDKKVRSRLIEQNSIEKIQLIDDYVAAVTSGLVADARVLVDFARISAQQEKVTYGSLVNIENLVKRVADQMQQYTQYGGVRPYGVSLIFAGIDQIGPRLFDCDPAGTINEYKATAIGSGKDAVVSFLEREYKENLPEKEAVTLGIKALKSSLEEGEELKAPEIASITVGNKYRIYDQEEVKKFL
notes: also called proximal α-ring of PAN-αWTββα_(K66A)
B4: Thermoplasma acidophilium 20S proteasome α-subunit K66A (natural protein, UniProt P25156 1-233, looked up)
chain: MQQGQMAYDRAITVFSPDGRLFQVEYAREAVKKGSTALGMKFANGVLLISDKKVRSRLIEQNSIEAIQLIDDYVAAVTSGLVADARVLVDFARISAQQEKVTYGSLVNIENLVKRVADQMQQYTQYGGVRPYGVSLIFAGIDQIGPRLFDCDPAGTINEYKATAIGSGKDAVVSFLEREYKENLPEKEAVTLGIKALKSSLEEGEELKAPEIASITVGNKYRIYDQEEVKKFL
notes: 20S proteasome α-subunit of Thermoplasma acidophilum, full-length, K66A; In the EM samples the K66A ring (distal ring of the asymmetric CP) is untagged; also called α_(K66A); distal α-ring; source: E. coli BL21(DE3), purified (strep-trap column)

In data set [1] the target is in vitro assembled asymmetric Thermoplasma acidophilium 20S core particle αWTββα_(K66A) (Thermoplasma acidophilium) (UniProt P25156).
Data set [2] has as its target in vitro assembled symmetric wild-type Thermoplasma acidophilium 20S core particle αWTββαWT (Thermoplasma acidophilium) (UniProt P25156).
The target of data set [3] is in vitro assembled asymmetric Thermoplasma acidophilium 20S core particle αWTββα_(K66A) (Thermoplasma acidophilium) (UniProt P25156). The source holds these as a separate data set.
The target in data set [4] is in vitro assembled symmetric wild-type Thermoplasma acidophilium 20S core particle αWTββαWT (Thermoplasma acidophilium) (UniProt P25156). This is another data set of the same source.
Data set [5] concerns the target B3. Nature of the data set: cryo-EM structure; single-particle cryo-EM of asymmetric CP with one activator bound, with or without substrate (LFP, GFP-ssrA), C7 symmetry applied, about 3 Å; PAN complexes with nucleotide. To be noted: both partners purified.
Data set [6] concerns the target B2. The description is as above. The following applies: both partners purified.
Data set [7] has as its target B4. Briefly: in vitro reconstitution with two-step affinity purification; two types of purified α-subunits and β-subunit mixed 1:2:1 in Tris buffer pH 7.5, 1 h at 37 °C; strep-trap column (α K66A), TEV cleavage of all tags except MBP, then MBP column (wild-type α). The following applies: both partners purified.
Data set [8] concerns the molecule itself. Nature of the data set: negative stain EM; α-subunits expressed in E. coli and purified alone; Supplementary Fig. 1c–i (panel c is negative stain EM; the method of the other panels was not shown).
Data set [9] deals with the molecule itself. Nature of the data set: cryo-EM structure; single-particle cryo-EM of asymmetric CP with one activator bound, with or without substrate (LFP, GFP-ssrA), C7 symmetry applied, about 3 Å; PAN complexes with nucleotide.

In general, stoichiometry N refers to the number of molecules, sites or subunits per partner or assembly.

Consider “PA26 (Trypanosoma brucei) with the point mutation V230F (natural protein)”, for which, in data set [1], the Kcat (1/min) of LFP peptidase activity, CP with PA26 (singly capped) came to 0.426 s⁻¹ and the Vmax (μM/min) of LFP peptidase activity, CP with PA26 (singly capped) was determined as 409 µM/min. Also, in [2], the Kcat (1/min) of LFP peptidase activity, CP with PA26 (doubly capped) stood at 0.839 s⁻¹ and the Vmax (μM/min) of LFP peptidase activity, CP with PA26 (doubly capped) amounted to 805 µM/min.
Turning to “PA26PANc: PA26 (Trypanosoma brucei) with E102A and the last eight C-terminal residues replaced with the last eight C-terminal residues of PAN”, in data set [3], the Kcat (1/min) of LFP peptide degradation, 16 nM CP with 112 nM activator (singly capped) worked out at 0.24 s⁻¹ and the Vmax (μM/min) of LFP peptide degradation, 16 nM CP with 112 nM activator (singly capped) is 230 µM/min. Besides, in [4], the Kcat (1/min) of LFP peptide degradation, 16 nM CP with 112 nM activator (doubly capped) turned out to be 0.207 s⁻¹ and the Vmax (μM/min) of LFP peptide degradation, 16 nM CP with 112 nM activator (doubly capped) was 199 µM/min.

B1: Thermoplasma acidophilium 20S proteasome β-subunit, pro-peptide truncated (residues 2–8 removed) (natural protein)
chain: TTTVGITLKDAVIMATERRVTMENFIMHKNGKKLFQIDTYTGMTIAGLVGDAQVLVRYMKAELELYRLQRRVNMPIEAVATLLSNMLNQVKYMPYMVQLLVGGIDTAPHVFSIDAAGGSVEDIYASTGSGSPFVYGVLESQYSEKMTVDEGVDLVIRAISAAKQRDSASGGMIDVAVITRKDGYVQLPTDQIESRIRKLGLIL
notes: 20S proteasome β-subunit of Thermoplasma acidophilum; residues 2–8 truncated to simulate the autoproteolytic removal of the N-terminal pro-peptide; A protease (TEV) site stands before the tag; Tags were removed after final purification of the assembled CP; also called β monomers; source: E. coli BL21(DE3), purified (Ni-NTA)
Turning to B1, the binding result in [5], in data set [6] and in [7] was “binds” each time.
Take B2: in data set [7], the binding result is recorded as “binds”. Moreover, the “stoichiometry N” value in data set [8] is 7 and 14.
In the case of B3, in data set [9], the binding result is on record as “binds”.
Consider B4, for which the binding result in [9] is given as “binds”.
